Residue numbers refer to the chain shown, from its start. One block for each binder: values may come before it.
Target: T1, P26 (human, UniProt P02771 381-609, limits assumed)
T1 construct: also called AFP p26
T1 sequence: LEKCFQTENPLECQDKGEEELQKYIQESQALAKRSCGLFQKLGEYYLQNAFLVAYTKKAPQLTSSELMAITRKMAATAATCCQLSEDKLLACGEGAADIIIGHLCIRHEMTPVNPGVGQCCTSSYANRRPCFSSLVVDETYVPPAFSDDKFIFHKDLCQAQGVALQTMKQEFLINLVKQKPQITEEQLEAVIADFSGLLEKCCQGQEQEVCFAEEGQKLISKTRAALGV
Test: ELISA, format not described
Parameters: unit not given here

B1: D domain SEQ ID NO: 852 (designed binder)
chain: MGSWHEFITRLEAIDQRLWALGGSEAELAAFEKEIAAFESELQAYKGKGNPEVEYLRFWAAEIRFILQAYRHN
ELISA_avg: 16.9

B2: D domain SEQ ID NO: 853 (designed binder)
chain: B1 chain with H5M, I8F, T9D, E12V, Q16E, F58M, I66L
ELISA_avg: 18.6

B3: D domain SEQ ID NO: 855 (designed binder)
chain: B1 chain with H5V, I8H, T9H, E12F, Q16E, F58M, W59V, F65Y
ELISA_avg: 21.4

B4: D domain SEQ ID NO: 856 (designed binder)
chain: B1 chain with I8M, T9E, E12I, Q16G, W59V, E62F, F65D, I66V
ELISA_avg: 17.9

B5: D domain SEQ ID NO: 857 (designed binder)
chain: B1 chain with H5K, T9Q, E12D, D15H, Q16Y, W59V, E62F, I66E
ELISA_avg: 18.4

B6: D domain SEQ ID NO: 858 (designed binder)
chain: B1 chain with H5S, T9F, E12D, D15H, Q16S, W19Q, W59I, F65L, I66K
ELISA_avg: 28.3

B7: D domain SEQ ID NO: 887 (designed binder)
chain: MGSWTEFWHRLEAIDSRLWALGGSEAELAAFEKEIAAFESELQAYKGKGNPEVESLREHAAHIRVWLQAYRHN
ELISA_avg: 13.2

B8: D domain SEQ ID NO: 859 (designed binder)
chain: B7 chain with T5F, W8Y, H9D, E12N, S16A, S55N, E58V, H62A, V65E
ELISA_avg: 5.92

B9: D domain SEQ ID NO: 868 (designed binder)
chain: B7 chain with T5L, W8Y, E12N, E58D, V65E
ELISA_avg: 19.2

B10: D domain SEQ ID NO: 876 (designed binder)
chain: B7 chain with T5F, W8Y, H9E, E12N, S55K, E58A, H62S, V65T
ELISA_avg: 27.1

B11: D domain SEQ ID NO: 877 (designed binder)
chain: B7 chain with T5I, W8Y, H9W, S16Q, S55D, E58V, H62A, V65W
ELISA_avg: 9.4

B12: D domain SEQ ID NO: 878 (designed binder)
chain: B7 chain with T5S, W8V, H9K, E12D, S16Q, E58V, H62A, V65A
ELISA_avg: 27

B13: D domain SEQ ID NO: 879 (designed binder)
chain: B7 chain with T5E, W8Y, H9Y, S16A, W19F, S55E, E58V, V65D
ELISA_avg: 30.3

B14: D domain SEQ ID NO: 880 (designed binder)
chain: B7 chain with T5V, W8H, H9Y, E12Q, S16A, S55E, E58V, V65K
ELISA_avg: 14.8

B15: D domain SEQ ID NO: 881 (designed binder)
chain: B7 chain with T5V, W8V, H9G, E12N, S16A, S55E, E58H, H62E, V65N
ELISA_avg: 26

B16: D domain SEQ ID NO: 882 (designed binder)
chain: MGSWNEFMDRLNAIDNRLWALGGSEAELAAFEKEIAAFESELQAYKGKGNPEVENLRKQAASIRLWLQAYRHN
ELISA_avg: 10

B17: D domain SEQ ID NO: 883 (designed binder)
chain: B16 chain with M8F, D9Q, N16E, N55D, K58Q, Q59H, S62N, L65W
ELISA_avg: 28.7

B18: D domain SEQ ID NO: 884 (designed binder)
chain: B7 chain with T5Y, W8V, H9V, E12F, S16E, V65S
ELISA_avg: 18.2

B19: D domain SEQ ID NO: 885 (designed binder)
chain: B7 chain with T5Y, W8Y, H9L, E12D, S16H, S55M, V65K
ELISA_avg: 16

B20: D domain SEQ ID NO: 886 (designed binder)
chain: B7 chain with T5Y, W8R, H9A, E12L, S16E, S55H, V65N, W66F
ELISA_avg: 20.9

B21: D domain SEQ ID NO: 888 (designed binder)
chain: B7 chain with W8Q, H9N, E12N, S16H, H62K
ELISA_avg: 30.5

B22: D domain SEQ ID NO: 889 (designed binder)
chain: B7 chain with T5S, W8F, H9K, S16R, S55E
ELISA_avg: 30.2

B23: D domain SEQ ID NO: 890 (designed binder)
chain: B7 chain with T5Y, W8Q, H9Q, S16T, S55E, V65H
ELISA_avg: 27.3

B24: D domain SEQ ID NO: 891 (designed binder)
chain: B7 chain with W8E, H9K, E12H, S16Y, S55D, H62A, V65H
ELISA_avg: 17.1

The next lines start with the values.

ELISA_avg: 24.4
B25: D domain SEQ ID NO: 892 (designed binder)
chain: B7 chain with W8H, H9Q, E12D, S16E, S55F, H62K, V65M

ELISA_avg: 30.4
B26: D domain SEQ ID NO: 893 (designed binder)
chain: B7 chain with T5L, W8S, H9Q, E12T, S55N, H62K, V65N

ELISA_avg: 16.7
B27: D domain SEQ ID NO: 894 (designed binder)
chain: B7 chain with W8V, H9N, E12Y, S55G, E58T, H62K, V65H

ELISA_avg: 32.1
B28: D domain SEQ ID NO: 895 (designed binder)
chain: B7 chain with T5M, W8V, H9D, E12S, S16R, S55V, H62N, V65Q

ELISA_avg: 29
B29: D domain SEQ ID NO: 896 (designed binder)
chain: B7 chain with T5V, W8V, H9S, E12Y, S16F, S55A, H62Q, V65D

ELISA_avg: 23.5
B30: D domain SEQ ID NO: 897 (designed binder)
chain: B1 chain with H5S, I8H, E12D, Q16T, Y55D, F58R, W59H, E62A, I66W

ELISA_avg: 30.8
B31: D domain SEQ ID NO: 898 (designed binder)
chain: B7 chain with T5L, W8H, H9S, E12D, S16T, S55K, H62A, V65H, W66Y

ELISA_avg: 29.7
B32: D domain SEQ ID NO: 899 (designed binder)
chain: B16 chain with N5T, M8Y, D9Q, N12D, N16T, N55G, K58Q, S62Q, L65A

ELISA_avg: 30.8
B33: D domain SEQ ID NO: 902 (designed binder)
chain: B7 chain with T5Y, W8Y, H9K, S16N, W19Y, S55Y, H62A, V65H

ELISA_avg: 29.6
B34: D domain SEQ ID NO: 903 (designed binder)
chain: B7 chain with T5Y, W8Y, H9Y, S16N, W19I, S55V, H62K, V65E

ELISA_avg: 33.1
B35: D domain SEQ ID NO: 904 (designed binder)
chain: B7 chain with T5Y, W8V, H9S, S16D, W19Y, S55M, E58Q, H62A, V65H

ELISA_avg: 26
B36: D domain SEQ ID NO: 905 (designed binder)
chain: B7 chain with T5Y, W8S, D15E, S16D, W19F, S55P, H62Y, V65H

ELISA_avg: 20.3
B37: D domain SEQ ID NO: 906 (designed binder)
chain: MGSWFEFFERLAAIEDRLWALGGSEAELAAFEKEIAAFESELQAYKGKGNPEVESLRVHAAAIRAFLQAYRHN

ELISA_avg: 18.3
B38: D domain SEQ ID NO: 907 (designed binder)
chain: B37 chain with F5I, F8K, E9Y, A12D, D16W, W19E, V58I, A65T, F66W

ELISA_avg: 19.4
B39: D domain SEQ ID NO: 908 (designed binder)
chain: MGSWYEFMYRLDAIEYRLFALGGSEAELAAFEKEIAAFESELQAYKGKGNPEVESLRIHAAMIREWLQAYRHN

ELISA_avg: 11.7
B40: D domain SEQ ID NO: 909 (designed binder)
chain: B7 chain with T5V, W8V, H9T, D15E, S16D, W19F, S55H, E58A, V65H

ELISA_avg: 30.1
B41: D domain SEQ ID NO: 910 (designed binder)
chain: B39 chain with M8V, Y9I, Y16D, S55H, I58V, M62H, E65V

ELISA_avg: 23.8
B42: D domain SEQ ID NO: 911 (designed binder)
chain: B39 chain with Y5V, M8V, Y9E, Y16F, S55K, I58N, M62H, E65S

ELISA_avg: 16.9
B43: D domain SEQ ID NO: 912 (designed binder)
chain: B39 chain with Y5S, M8V, Y9H, Y16V, S55E, I58Y, M62K, E65S

ELISA_avg: 30.8
B44: D domain SEQ ID NO: 913 (designed binder)
chain: B7 chain with T5S, W8Y, H9Y, E12A, D15E, W19F, S55R, V65R
